{"source": "patent US20170037084A1", "about": "(UNIVERSITY OF ROCHESTER, published 2017)", "note": "Bridges are numbered along the chain shown (N, C = ends). Where no end group is shown, it is not given here. [ ]: non-standard residue; d: D form. The star is where a group is joined. SP8 = 3-amino-N-(3-(aminooxy)propyl)-4-(mercaptomethyl)benzamide, macrocycle-forming linker reagent; mAcF = meta-acetyl-L-phenylalanine, its ketone forms an oxime with the linker; pAcF = para-acetyl-L-phenylalanine, its ketone forms an oxime with the linker; FITC = O=C1OC2(c3ccc(O)cc3Oc3cc(O)ccc32)c2ccc(NC(=S)*)cc21; Trp(6-Cl) = N[C@@H](Cc1c[nH]c2cc(Cl)ccc12)C(=O)O; Phe(4-Ac) = CC(=O)c1ccc(C[C@H](N)C(=O)O)cc1; SP4 = not defined here; SP6 = not defined here; SP9 = not defined here; βAla = NCCC(=O)O", "data": [{"target": "T1, HDMX-YFP fusion protein (p53-binding domain of human HDMX, residues 1-109, C-terminally fused to Yellow … (human, UniProt O15151 1-109))", "T1 construct": "range 1-109; Expressed in E. coli BL21(DE3) from pET22-HDMX-YFP-His; also called HMDX; HDM4; not shown: Yellow Fluorescent Protein (YFP); C-terminal His tag", "T1 sequence (looked up)": "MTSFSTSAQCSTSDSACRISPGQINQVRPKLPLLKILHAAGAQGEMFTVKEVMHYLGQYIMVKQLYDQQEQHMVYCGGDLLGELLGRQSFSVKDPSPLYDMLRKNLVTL", "test": "SPR inhibition assay: inhibitor added to soluble HDMX-YFP, binding to immobilized biotin-SGSG-p53(15-29) is inhibited", "description": "(§1) The surface plasmon resonance (SPR)-based inhibition assays were performed using a BIAcore T100 instrument. […] Running buffer and sample buffer contained 10 mM HEPES buffer, pH 7.4 with 150 mM NaCl, 3 mM EDTA and 0.05% v/v Tween 20. […] With increasing concentrations of the inhibitor, binding of HDM2 (or HDMX) to the surface is inhibited, leading to a decrease in biosensor response. HDM2/HDMX plus inhibitor samples were injected at a rate of 30 uL/min over a 2 minute interval by a 2 minute dissociation period and a 10-second regeneration step using 10 mM HCl. Specific binding curves for each concentration of inhibitor were obtained by subtracting the response in the reference surface from the response in the p53-coated surface.", "units": {"IC50": "µM"}, "values": [{"binder": "Ac-GTSFAYYWNLLA-NH2 (also called acyclic counterpart of P3 and P4)", "note": "[P2]", "IC50": 7.5}, {"binder": "GTSFA[Phe(4-Ac)]YWNLLA (linker 6-C via SP6; reading uncertain; also: linker thiol capped with iodoacetamide)", "note": "[p53 macrocyclic peptidomimetic P3 (i/i+6(CO)-linked, SP6-based linker)]", "IC50": 4.1}, {"binder": "GTSFA[pAcF]YWNLLA (linker 6-C via SP8; also: linker thiol capped with iodoacetamide)", "note": "[p53 macrocyclic peptidomimetic P4 (i/i+6(CO)-linked, SP8-based linker)]", "IC50": 3.5}]}, {"target": "T2, HDM2-YFP fusion protein (p53-binding domain of human HDM2, residues 1-109, C-terminally fused to Yellow … (human, UniProt Q00987 1-109))", "T2 construct": "range 1-109; Expressed in E. coli BL21(DE3) from pET22-HDM2-YFP-His; also called HMD2; HDM2-YFP-His; not shown: Yellow Fluorescent Protein (YFP); C-terminal His tag", "T2 sequence (Q00987 1-109)": "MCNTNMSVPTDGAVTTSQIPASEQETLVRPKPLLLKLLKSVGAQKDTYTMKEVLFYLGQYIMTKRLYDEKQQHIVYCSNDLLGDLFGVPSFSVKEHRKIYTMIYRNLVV", "test": "SPR inhibition assay: inhibitor added to soluble HDM2-YFP, binding to immobilized biotin-SGSG-p53(15-29) is inhibited", "description": "as §1", "units": {"IC50": "µM"}, "values": [{"binder": "Ac-[pAcF]SFAEY[Trp(6-Cl)]ALLA (linker 1-C via SP9; reading uncertain; also: linker thiol capped with iodoacetamide, also called Ac-(pAcF)SFAEY(6ClW)ALLA, SP9-linked macrocycle)", "note": "[P17]", "IC50": 0.305}, {"binder": "Ac-GTSFAYYWNLLA-NH2 (also called acyclic counterpart of P3 and P4)", "note": "[P2]", "IC50": 1.51}, {"binder": "GTSFA[Phe(4-Ac)]YWNLLA (linker 6-C via SP6; reading uncertain; also: linker thiol capped with iodoacetamide)", "note": "[p53 macrocyclic peptidomimetic P3 (i/i+6(CO)-linked, SP6-based linker)]", "IC50": 0.87}, {"binder": "GTSFA[pAcF]YWNLLA (linker 6-C via SP8; also: linker thiol capped with iodoacetamide)", "note": "[p53 macrocyclic peptidomimetic P4 (i/i+6(CO)-linked, SP8-based linker)]", "IC50": 1.5}, {"binder": "Ac-G[pAcF]SFAEYWNLLA (linker 2-C via SP8; also: linker thiol capped with iodoacetamide)", "note": "[P12]", "IC50": 0.145}, {"binder": "Ac-[mAcF]SFAEY[Trp(6-Cl)]ALLA (linker 1-C via SP9; reading uncertain; also: linker thiol capped with iodoacetamide, also called Ac-(mAcF)SFAEY(6ClW)ALLA, SP9-linked macrocycle)", "note": "[P18]", "IC50": 0.4}, {"binder": "Ac-[Phe(4-Ac)]SFAEY[Trp(6-Cl)]ALLA-NH2 (SMILES CC(=O)N[C@@H](Cc1ccc(C(C)=O)cc1)C(=O)N[C@@H](CO)C(=O)N[C@@H](Cc1ccccc1)C(=O)N[C@@H](C)C(=O)N[C@@H](CCC(=O)O)C(=O)N[C@@H](Cc1ccc(O)cc1)C(=O)N[C@@H](Cc1c[nH]c2cc(Cl)ccc12)C(=O)N[C@@H](C)C(=O)N[C@@H](CC(C)C)C(=O)N[C@@H](CC(C)C)C(=O)N[C@@H](C)C(N)=O, also called Ac-(pAcF)SFAEY(6ClW)ALLA-NH2)", "note": "[P11]", "IC50": 0.03}, {"binder": "Ac-[pAcF]SFAEYWNLLA (linker 1-C via SP8; also: linker thiol capped with iodoacetamide)", "note": "[P13]", "IC50": 0.135}, {"binder": "Ac-[mAcF]SFAEYWNLLA (linker 1-C via SP8; also: linker thiol capped with iodoacetamide)", "note": "[P14]", "IC50": 0.255}, {"binder": "Ac-[mAcF]SFAEY[Trp(6-Cl)]ALLA (linker 1-C via SP8; also: linker thiol capped with iodoacetamide, also called Ac-(mAcF)SFAEY(6ClW)ALLA, SP8-linked macrocycle)", "note": "[P16]", "IC50": 0.105}, {"binder": "Ac-[pAcF]SFAEY[Trp(6-Cl)]ALLA (linker 1-C via SP4; reading uncertain; also: linker thiol capped with iodoacetamide, also called Ac-(pAcF)SFAEY(6ClW)ALLA, SP4-linked macrocycle)", "note": "[P19]", "IC50": "> 50"}]}, {"target": "T1, HDMX-YFP fusion protein (p53-binding …)", "test": "SPR inhibition assay, competitor immobilised biotin-p53(15-29); the sentence does not say which homolog", "description": "as §1", "units": {"IC50": "µM"}, "values": [{"binder": "GTSFA[Phe(4-Ac)]YWNLLA (linker 6-C via SP4; reading uncertain; also: linker thiol capped with iodoacetamide, also called SP4-based macrocycle P5)", "IC50": "~10"}]}, {"target": "T1, HDMX-YFP fusion protein (p53-binding …)", "test": "SPR inhibition assay, competitor immobilised biotin-p53(15-29)", "description": "as §1", "units": {"IC50": "µM"}, "values": [{"binder": "G[Phe(4-Ac)]SFAEYWNLLA (bridge 2-C; not fully specified (bridges); also: linker thiol capped with iodoacetamide)", "note": "[p53 macrocyclic peptidomimetic P8 (i/i+10(CO)-linked, SP8-based linker)]", "IC50": 0.34}, {"binder": "G[Phe(4-Ac)]SFAEYWNLLA (linker 2-C via SP6; reading uncertain; also: linker thiol capped with iodoacetamide)", "note": "[p53 macrocyclic peptidomimetic P7 (i/i+10(CO)-linked, SP6-based linker)]", "IC50": 0.91}]}, {"target": "T2, HDM2-YFP fusion protein (p53-binding …)", "test": "fluorescence polarization, fluorescein-labeled compound (25-200 nM) titrated with HDM2 (10 nM to 2 µM)", "description": "HDM2 binding studies. […] In the assay, 25-200 nM of the fluorescein-labeled compound and HDM2 concentrations varying from 10 nM to 2 μM were tested. The experiments were performed at room temperature in black 96-well plates with a final volume of 75 μL in PBS buffer with addition of 1% DMSO. Fluorescence was detected at excitation/emission of 470/520 nm and change in fluorescence polarization was plotted against the varying protein concentration.", "units": {"Kd": "µM"}, "values": [{"binder": "{FITC-βAla}-G[pAcF]SFAEYWNLLA (linker 2-C via SP8; also: linker thiol capped with iodoacetamide, also called fluorescein-conjugated P8)", "note": "[FITC-β-Ala-P8 (fluorescein-labeled derivative of macrocycle P8)]", "Kd": 0.063}]}]}
